# What was measured:
# [1] = Thermal stability of MBP-SUFU constructs; format: physicochemical; details: SYPRO Orange, 2.2 µM protein, no peptide, 50 mM Na HEPES pH 7.0, 50 mM NaCl, 5 mM β-mercaptoethanol; heated 20 to 90°C; triplicate
# Experimental: Recombinant MBP-SUFU proteins were diluted to 2.6 µM in 50 mM Na HEPES pH 7.0, 50 mM NaCl, 5 mM β-mercaptoethanol; the peptides GLI1p and GLI1p-SH (Supplementary Table S1b), synthesized by Dr W. Mawby (University of Bristol), were dissolved in the same buffer. Proteins were spun at 14 000g for 20 min at 4°C before adding SYPRO Orange (Molecular Probes) to a final concentration of 6×. Reaction volumes of 25 µl were prepared in 96-well PCR plates with 2.2 µM protein/SYPRO Orange solution and, where applicable, 44 µM peptide. Plates were sealed with optical tape, heated from 20 to 90°C in 12 s 0.2°C steps in an iCycler and fluorescence was detected using an excitation wavelength of 470 nm and an emission wavelength of 570 nm.
# To determine whether the IDR affects the GLI-binding properties of SUFU, we used a human GLI1-derived peptide (GLI1p; residues 115–131; Supplementary Table S1b) containing the highly conserved SYGH motif important for interaction with SUFU (Dunaeva et al., 2003[▶]) in a thermal stability assay with MBP-SUFU-FL and MBP-SUFU-Δ (Fig. 4 ▶ a). The addition of GLI1p stabilized both proteins: T m for MBP-SUFU-FL was shifted by 4°C and that for MBP-SUFU-Δ was shifted by 3.6°C. […] The GLI1 dose dependency of this effect was confirmed in a separate experiment with increasing GLI1p concentrations (Supplementary Fig. S7a).
# [2] = tested on: Hh pathway, Sufu −/− MEFs; assay: Constitutive Hh pathway activity in Sufu −/− MEFs; format: cell-based, mouse; details: Gli-BS luciferase reporter
# Experimental: Sufu ^−/− mouse embryonic fibroblast (MEF) cells (Svärd et al., 2006[▶]) were transfected with a mixture of p8x3′Gli-BS LucII or p8x3′Gli-mBS LucII reporter constructs (Sasaki et al., 1997[▶]; generous gifts from Hiroshi Sasaki) together with pRL-SV40 (Promega) internal control using Lipofectamine LTX with Plus reagent (Invitrogen) according to the manufacturer’s instructions. Following transfection, Sufu ^−/− MEF cells were grown until the culture reached confluency (24–48 h) and the cells were then switched to low-serum medium (0.5% FBS) with 100–200 nM SAG (kindly provided by Jan Bergman, Karolinska Institutet), 10 µM purmorphamine (Calbiochem) or Shh conditioned medium (1:4) and grown for an additional 48–72 h. Cell lysis and luciferase activity measurements were performed using a Dual Luciferase Activity Assay Kit (Promega). For statistical evaluation of reporter gene assays, a one-tailed paired Student’s t-test was used. All activity measurements were performed at least three times in independent experiments.
# GLI1 [3] = assay: Co-immunoprecipitation with GLI1; format: binding; details: Cos-7 cell lysates, GLI1-FLAG and Myc-SUFU; four independent experiments
# Experimental: Cos-7 cells were transfected separately with C-terminally FLAG-tagged GLI1 in pCMV5 (Andersson et al., 1989[▶]) and N-terminally Myc-tagged SUFU in pCMV-Script (Stratagene) using Fugene 6 (Roche). 24 h after transfection, the cells were lysed with 50 mM Tris–HCl pH 7.4, 150 mM NaCl, 1% NP-40, 0.25% sodium deoxycholate, 1 mM N-ethylmaleimide (Fluka), 1 mM dithiothreitol and cOmplete Mini protease inhibitors (Roche). Normalized lysates were combined and pre-incubated for 6 h. Co-immunoprecipitation was performed for 16 h using agarose-conjugated anti-FLAG M2 (Sigma–Aldrich) and anti-Myc 9b11 (Cell Signaling) antibodies. The beads were washed three times with 500 µl lysis buffer and the bound protein was eluted by boiling the beads in SDS–PAGE sample buffer and analyzed by Western blotting. Samples were separated by SDS–PAGE, transferred to polyvinylidene fluoride Immobilon-P membranes (Millipore) and probed using anti-Myc 71D10 (Cell Signaling) or anti-Myc 9E10 (Santa Cruz) antibodies and anti-DYKDDDDK tag antibody (Cell Signaling). Similar results were obtained in four independent experiments.
# GLI1 [4] = assay: GLI1-induced reporter gene activity in HEK 293 cells; format: cell-based; details: transient transfection, HEK 293, 12GLI-RE-TKO-luc luciferase reporter, 48 h
# Excerpt: (§1) SUFU variants with mutated IDR regions, the SUFU-Δ, SUFU-SH, SUFU-SH2 and SUFU-IDRfly constructs, were generated by replacing amino acids 279–360 of N-terminally Myc-tagged full-length SUFU in pcDNA3.1 (Invitrogen) with corresponding sequences synthesized at GenScript USA Inc. (Supplementary Table S1a). HEK 293 cells were transfected with a mixture of GLI1-FLAG or Myc-GLI2 (Roessler et al., 2005[▶]; a kind gift from Erich Roessler) and Myc-SUFU constructs together with 12GLI-RE-TKO-luc luciferase reporter (Kogerman et al., 1999[▶]) and pRL-SV40 (Promega) internal control using Fugene 6 or X-tremeGENE 9 (Roche) transfection reagent. Expression assays were carried out for 48 h, followed by luciferase activity measurements using a Dual Luciferase Activity Assay Kit (Promega). To verify the expression levels of transfected SUFU and GLI constructs, aliquots of cell lysates were separated by SDS–PAGE and subjected to immunoblot analysis as above. The densities of the visualized protein bands were quantified using the ImageJ 1.47v image-analysis and image-processing software (Schneider et al., 2012[▶]).
# GLI2 = assay: GLI2-induced reporter gene activity in HEK 293 cells; format: cell-based; details: transient transfection, HEK 293, 12GLI-RE-TKO-luc luciferase reporter, 48 h
# Excerpt: as §1
# [5] = R123C germline mutation; ref Aavikko et al., 2012; cited from earlier work
# Excerpt: SUFU is a tumour suppressor protein that is found to be inactivated most frequently (up to 50%) by germline mutations in children below the age of three presenting with medulloblastoma of the desmoplastic/nodular subtype (Slade et al., 2011[▶]; Brugières et al., 2012[▶]), whereas a somatic mutation frequency of about 10% has been reported for sporadic medulloblastomas of the desmoplastic subtype (Taylor et al., 2002[▶]). Moreover, germline or somatic mutations in the SUFU gene have recently been described in association with meningioma and chondrosarcoma (Aavikko et al., 2012[▶]; Kijima et al. ...
# trypsin = assay: Limited proteolysis with trypsin; format: physicochemical; details: 100 mM ammonium bicarbonate, 23°C
# Experimental: SUFU32–484 cloned in pLJMBP6c was expressed in E. coli and purified as described above. The purified protein was digested with trypsin (Sigma–Aldrich) in 100 mM ammonium bicarbonate at 23°C. The protease was inactivated by adding 10 mM PMSF and sample-loading buffer followed by heating at 95°C for 5 min. Protein bands were separated by SDS–PAGE and visualized by Coomassie Blue staining. Proteolytic peptide fragments were identified by N-terminal sequencing (Alphalyse A/S) as well as MALDI–TOF and MALDI–TOF/TOF mass-spectrometric analyses (Ultraflex II and Autoflex III, Bruker Daltonics).
molecule,measurement,setting,value
"MBP-SUFU-Δ: MBP-SUFU with amino acids 279–360 replaced by the heptamer sequence PSRGEDP (protein, left off: MBP, N-terminal, kept | His6, C-terminal, state not stated) PGLHAIYGECRRLYPDQPNPLQVTAIVKYWLGGPDPLDYVSMYRNVGSPSANIPEHWHYISFGLSDLYGDNRVHEFTGTDGPSGFGFELTFRLKRETGESAPPTWPAELMQGLARYVFQSENTFCSGDHVSWHSPLDNSESRIQHMLLTEDPQMQPVQTPFGVVTFLQIVGVCTEELHSAQQWNGQGILELLRTVPIAGGPWLITDMRRGETIFEIDPHLQERVDKGIETDGSNLSGVSAKCAWDDLPSRGEDPIRTRQLESVHLKFNQESGALIPLCLRGRLLHGRHFTYKSITGDMAITFVSTGVEGAFATEEHPYAAHGPWLQILLTEEFVEKMLEDLEDLTSPEEFKLPKEYSWPEKKLKVSILPDVVFDSPL",Tm,[1],46.6 °C
"SUFU-FL: full-length SUFU, N-terminally Myc-tagged (protein, left off: Myc, N-terminal, kept, full-length SUFU, N-terminally Myc-tagged) MAELRPSGAPGPTAPPAPGPTAPPAFASLFPPGLHAIYGECRRLYPDQPNPLQVTAIVKYWLGGPDPLDYVSMYRNVGSPSANIPEHWHYISFGLSDLYGDNRVHEFTGTDGPSGFGFELTFRLKRETGESAPPTWPAELMQGLARYVFQSENTFCSGDHVSWHSPLDNSESRIQHMLLTEDPQMQPVQTPFGVVTFLQIVGVCTEELHSAQQWNGQGILELLRTVPIAGGPWLITDMRRGETIFEIDPHLQERVDKGIETDGSNLSGVSAKCAWDDLSRPPEDDEDSRSICIGTQPRRLSGKDTEQIRETLRRGLEINSKPVLPPINPQRQNGLAHDRAPSRKDSLESDSSTAIIPHELIRTRQLESVHLKFNQESGALIPLCLRGRLLHGRHFTYKSITGDMAITFVSTGVEGAFATEEHPYAAHGPWLQILLTEEFVEKMLEDLEDLTSPEEFKLPKEYSWPEKKLKVSILPDVVFDSPLH",suppression of constitutive Hh pathway activity,[2],suppress constitutive pathway activity in Sufu ^−/− cells (c) with similar efficiency
same,GLI1 binding in Co-IP,GLI1 [3],no remarkable difference in GLI1 binding
same,repression of transcriptional activity induced by GLI1,GLI1 [4],efficiently repressed
same,repression of transcriptional activity induced by GLI2,GLI2,efficiently repressed
"R123C: SUFU R123C mutation segregated with tumour development in a family predisposed to meningiomas (protein, UniProt Q9UMX1 1-484, looked up, variant R123C) Suppressor of fused homolog: MAELRPSGAPGPTAPPAPGPTAPPAFASLFPPGLHAIYGECRRLYPDQPNPLQVTAIVKYWLGGPDPLDYVSMYRNVGSPSANIPEHWHYISFGLSDLYGDNRVHEFTGTDGPSGFGFELTFCLKRETGESAPPTWPAELMQGLARYVFQSENTFCSGDHVSWHSPLDNSESRIQHMLLTEDPQMQPVQTPFGVVTFLQIVGVCTEELHSAQQWNGQGILELLRTVPIAGGPWLITDMRRGETIFEIDPHLQERVDKGIETDGSNLSGVSAKCAWDDLSRPPEDDEDSRSICIGTQPRRLSGKDTEQIRETLRRGLEINSKPVLPPINPQRQNGLAHDRAPSRKDSLESDSSTAIIPHELIRTRQLESVHLKFNQESGALIPLCLRGRLLHGRHFTYKSITGDMAITFVSTGVEGAFATEEHPYAAHGPWLQILLTEEFVEKMLEDLEDLTSPEEFKLPKEYSWPEKKLKVSILPDVVFDSPLH",inhibitory activity in cellular assays,[5],reduced inhibitory activity
"MBP-SUFU-FL: MBP fusion containing residues 32–483 of human SUFU and a C-terminal hexahistidine tag (protein, left off: MBP, N-terminal, kept | His6, C-terminal, state not stated, MBP fusion containing residues 32–483 of human SUFU and a C-terminal hexahistidine tag) PGLHAIYGECRRLYPDQPNPLQVTAIVKYWLGGPDPLDYVSMYRNVGSPSANIPEHWHYISFGLSDLYGDNRVHEFTGTDGPSGFGFELTFRLKRETGESAPPTWPAELMQGLARYVFQSENTFCSGDHVSWHSPLDNSESRIQHMLLTEDPQMQPVQTPFGVVTFLQIVGVCTEELHSAQQWNGQGILELLRTVPIAGGPWLITDMRRGETIFEIDPHLQERVDKGIETDGSNLSGVSAKCAWDDLSRPPEDDEDSRSICIGTQPRRLSGKDTEQIRETLRRGLEINSKPVLPPINPQRQNGLAHDRAPSRKDSLESDSSTAIIPHELIRTRQLESVHLKFNQESGALIPLCLRGRLLHGRHFTYKSITGDMAITFVSTGVEGAFATEEHPYAAHGPWLQILLTEEFVEKMLEDLEDLTSPEEFKLPKEYSWPEKKLKVSILPDVVFDSPL",protease-hypersensitive sites,trypsin,Several protease-hypersensitive sites were found clustered within residues 299–363
same,Tm,[1],50.1 °C

# Reference: publication PMC3852661, “Structural basis of SUFU–GLI interaction in human Hedgehog signalling regulation” (Acta Crystallographica Section D: Biological Crystallography, 2013)
